Reference: patent US20250215105A1 (BRIGHTPATH BIOTHERAPEUTICS, published 2025)

Target: T1, human CD39 on the cell surface (human, UniProt P49961 1-510)
T1 construct: whole, on cells; This one entry covers every cell-surface human CD39 assay, on transfected and on endogenous cells; also called 239T-hCD39; Jurkat-hCD39
T1 sequence (looked up): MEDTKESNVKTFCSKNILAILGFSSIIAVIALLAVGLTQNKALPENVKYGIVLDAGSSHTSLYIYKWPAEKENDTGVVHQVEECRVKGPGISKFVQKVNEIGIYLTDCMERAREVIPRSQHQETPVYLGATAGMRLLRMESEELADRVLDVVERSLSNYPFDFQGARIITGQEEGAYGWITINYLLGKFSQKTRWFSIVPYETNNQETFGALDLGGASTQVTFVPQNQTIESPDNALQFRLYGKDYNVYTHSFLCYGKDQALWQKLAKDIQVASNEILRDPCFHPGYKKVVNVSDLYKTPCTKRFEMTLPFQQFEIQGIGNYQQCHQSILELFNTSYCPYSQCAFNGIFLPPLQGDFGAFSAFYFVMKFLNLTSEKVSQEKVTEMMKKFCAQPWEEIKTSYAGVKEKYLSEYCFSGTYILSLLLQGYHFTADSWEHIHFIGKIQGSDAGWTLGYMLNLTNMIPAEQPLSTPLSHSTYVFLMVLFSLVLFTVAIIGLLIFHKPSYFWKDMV
Assay: flow cytometry on human CD39-overexpressing HEK293T or Jurkat cells

B1: P4_h1lala (antibody, V domains shown)
VH: QVQLKESGPSLVQPSQSLSITCTVSGFSLTNYGVHWVRQSPGKGLEWLGVILRRGSTDYNAAFMSRLSITKDNSKSQVFFKMNSLQADDTAIYYCAKTAVVAGDYFDYWGQGTTLTVSS
VL: DIVMTQSHKFMSTSVGDRVSVTCKASQNVGTNVAWYQQKPGQSPKALIYSASYRYSGVPDRFTGSGSGTDFTLTISNVQSEDLAEYFCQQYNSYPLTFGTGTKLEIKR
notes: Chimeric antibody
B1: binds.
